Experiment [1] concerns the target T1, HA head domain of A/Texas/50/2012 (H3N2) (Influenza A virus A/Texas/50/2012 (H3N2), strain). Description: BLI.
In experiment [2] the target is HA head of A/Florida/904/2000 (H1N1) (Influenza A virus A/Florida/904/2000 …, UniProt Q91R26, strain). Description: BLI.
In experiment [3] the target is T1, HA head domain of A/Texas/50/2012 (H3N2). Description: crystal structure.

We go through four molecules from PMC5810956 (Immunity, 2018).

B1: K03.12 Fab (tag removed, for binding studies) (Fab, V domains shown)
VH: EVQLVQSGAEVKKPGASVKVSCKTSGYTFTAYYLHWVRQAPGQGFEWMAWINPNTGDTNYAQKFQGRVTLSRDTSITTAYMELTRLRSDDTAVYYCAKDLTLMYVFDSGWARGAHDYYGMDVWGQGTTVAVSG
VL: PSALTQPASVSGSPGQSVTISCTGTNSDVGTFDLVSWYQQYPGKAPKLIIYEGSRRPSGVSDRFSGSKSGNTASLTISGLQAEDEADYYCSSYAGSVVFGGGTKLTVL
Consider B1, for which the binding result in experiment [1] and in experiment [2] was “binds” each time.

B2: K03.12 Fab for crystallization (noncleavable 6xHis tag) (Fab, V domains shown)
VH: EVQLVQSGAEVKKPGASVKVSCKTSGYTFTAYYLHWVRQAPGQGFEWMAWINPNTGDTNYAQKFQGRVTLSRDTSITTAYMELTRLRSDDTAVYYCAKDLTLMYVFDSGWARGAHDYYGMDVWGQGTTVAVSG
VL: PSALTQPASVSGSPGQSVTISCTGTNSDVGTFDLVSWYQQYPGKAPKLIIYEGSRRPSGVSDRFSGSKSGNTASLTISGLQAEDEADYYCSSYAGSVVFGGGTKLTVL
Turning to B2, the binding result in experiment [3] is recorded as “binds”.

B3: K03.1-12 lineage unmutated common ancestor (UCA) Fab (tag removed, for binding studies) (Fab, V domains shown)
VH: not shown
VL: QSALTQPASVSGSPGQSITISCTGTSSDVGSYNLVSWYQQHPGKAPKLMIYEGSKRPSGVSNRFSGSKSGNTASLTISGLQAEDEADYYCCSYAGSVVFGGGTKLTVL
Regarding B3, the binding result in experiment [1] and in experiment [2] was “binds” each time.

B4: I-11 Fab (inferred evolutionary intermediate of the K03.1-12 lineage) (Fab, V domains shown)
VH: not shown
VL: QSALTQPASVSGSPGQSVTISCTGTSSDVGSYNLVSWYQQHPGKAPKLMIYEGSKRPSGVSNRFSGSKSGNTASLTISGLQAEDEADYYCCSYAGSVVFGGGTKLTVL
On to B4, for which the binding result in experiment [1] and in experiment [2] was “binds” in each case.
